Experiment: yeast display, Sf9 membrane polyspecificity reagent, FACS + sequencing; frameworks hold sequencing errors
How it was run: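 After 36–48 hours of galactose induction, yeast (Saccharomyces cerevisiae BJ5465) displaying a synthetic nanobody library were stained at 4 °C for 1 hour with 10% biotinylated, detergent-solubilized Sf9 membrane reagent. Streptavidin microbeads enriched the stained cells before FACS sorting into low and high (top ~1%) gates on anti-HA and streptavidin fluorescence. Each clone's polyreactivity label reflects its gate of origin.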

| Sequence | polyreactivity (PSR sort gate) |
| --- | --- |
| QVQLVESGGGLVQAGGRLRLSCAASGRTFRRYTMGWDRQAPGKERELVAANTSGGRTNYADSVKGRFTISRDNAKNTVYLQMNSLKPEDTAVYYCNAQNEIWRVTFSPYDRWGYDYWGQGTQVTVSA | low polyreactivity |
| QVQLVESGGGLVQAGGRLRLSCAASGRTFTPNAMGWYRQAPGKERELVAAIDWRGGRTYYADSVKGRFTISRDNAKNTVYLQMNSLKPEDTAVYYCAARVDGYHYKSAGYSYGVYYWGQGTQVTVSS | low polyreactivity |
| QVQLVESGGGLVQAGGRLRLSCAASGRTFYRNAMGWYRQAPGKERELVAGISVRGGRTYYADSVKGRFTISRDNAKNTVYLQMNSLKPEDTAVYYCNKRLSSSLSLKYDYWGQGTQVTVSS | high polyreactivity |
| QVQLVESGGGLVQAGGRLRLSCAASGRTFYSNAMGWYSQAPGKERELVAAITFGGGSTYYADSVKGRFTISRDNAKNTVYLQMNSLKPEDTAVYYCAAEGYKYRFYYWGQGTQVTVSS | low polyreactivity |
| QVQLVESGGGLVQAGGRLRLSCAASGRTFYSYTMGWYRPAPGKERELVAAIRYSGDRTYYADSVKGRFTISRDNAKNTVDLQMNSLKPEDTAVYYCGKAAPYPGSFYYWGQGTQVTVSS | low polyreactivity |
| QVQLVESGGGLVQAGGRLRLSCAASGRTIPYYAMGWSRQSPGKDREFVAAISGGGGSTHYADSVKGRFTISRDNAKNTVYLQMNSLKPEDTAVYYCNADKYSVYGEHPYDYWGQGSQVTVSS | low polyreactivity |
| QVQLVESGGGLVQAGGRLRLSCAASGRTIYGYDKGWYRQAPGKERELVAAINIGGRTNYADSVKGRFTISRDNAKNTVYLQMNSLKPEDTAVYYCADRYTFGPYLARSYGYWGQGTQVTVSS | low polyreactivity |
| QVQLVESGGGLVQAGGRLRLSCAASGRTLVSNAMGWYRQAPGKERELVAAITYSGGSTYYADSVKGRFTISRDNAKNTVYLQMNSLKPEDTAVYYCAKVGRLYRVGGYDYWGQGTQVTVSS | low polyreactivity |
| QVQLVESGGGLVQAGGRLRLSCAASGRTLWIYAMGWYRQAPGKERELVASITTRGGSTYYADSVKGRFTISRDNAKNTVYLQMKSLKPEDTAVYYCAAEGYTYYTYDPHDYWGQGTQVTVSS | high polyreactivity |
| QVQLVESGGGLVQAGGRLRLSCAASGRTMGWYRQAPGKERELVAAISSGGGSTYYADSVKGRFTISRDNAKNTVYLQMNSLKPEDTAVYYCARTTIAQLHSIVAPHDYWGQGTQVTVSS | low polyreactivity |
| QVQLVESGGGLVQAGGRLRLSCAASGSIFAGYAMGWYRQAPGKERELVAASSTDYADSVKGRFTISRDNAKNTVYLHMNSLKPEDTAVYYCAKVGFGIPGGFYYWGQGTQVTVSS | low polyreactivity |
| QVQLVESGGGLVQAGGRLRLSCAASGSIFASYALGWYRQAPGKERELVAVITRSGGSTYYADSVKGRFTISRDNAKNTVYLQMNSLKPEDTAVYYCAAQYGRTYYSRREYWGQGTQVTVSS | high polyreactivity |
| QVQLVESGGGLVQAGGRLRLSCAASGSIFDSYVMGWYRQAPGKERELVAAITYSGGSTYADSVKGRFTISRDNAKNTVYLEMNSLKPEDTAVYYCAAASYFYLYLLEDYWGQRTQVTVSS | low polyreactivity |
| QVQLVESGGGLVQAGGRLRLSCAASGSIFIGYAMGWYRQAPGKERELVATISGSGGSTYYADSEKGRFTISRDNAKNTVSLQMNSLKPEDSAVYYCAAVSVSSWYDYWGQGTQVTVSS | low polyreactivity |
| QVQLVESGGGLVQAGGRLRLSCAASGSIMDTNAMGWYRQAPGKERELVARIDIDGSTNYADSVKGRFTISRDNAKKTVYLQMNSLKPEDTAVYYCNKDHSSYGASGYDYWGQGTQVTVSS | low polyreactivity |
| QVQLVESGGGLVQAGGRLRLSCAASGSNFDIYALGWYRQAPGKERELVAAIRGRGGSTYYADSVKGRFTISRDNAKNTVYLQMNSLKPEDTAVYYCAARNSYGNWRYYYWGQGTQVTVSS | high polyreactivity |
| QVQLVESGGGLVQAGGRLRLSCAASGSTFATYAMGWYRQAPGKERELVAVISRSGGSTYYADSVKGRFTISRDNAKNTVYLQMNCLKPEDTAVYYCAARPRGKYDYRGQGTQVTVSS | high polyreactivity |
| QVQLVESGGGLVQAGGRLRLSCAASGSTFDYYTMGGYRQAPGKERELVAGITSGGSTNYADSVKGRFTISRDNAKNTVYLQMNSLKPADTAVYYCAARVSKYYKPYGYWGQGTQVTVSS | high polyreactivity |
| QVQLVESGGGLVQAGGRLRLSCAASGSTFFKYDMGWYRQAPGKERELVAVITWSGGTTFYADSVKGRFTISRDNAKNTVYLQMNSLKPEDTAVYYCAADYYGYRYDYWGQGTQVTVSS | low polyreactivity |
| QVQLVESGGGLVQAGGRLRLSCAASGSTFGENVMGWYRQAPGKERELVAAISRGGSTYYADSVKGRFTISRDNAKNTVYLQMNSLKPEDTAVYYCAARTRSGPRYNYNYWGQGTQVTVSS | high polyreactivity |
| QVQLVESGGGLVQAGGRLRLSCAASGSTFGLNAMGRYRHAPGKEREFVASINFNDGSTYYADSVKGRFTISRDNAKNTVYLRMNSLKPEDTAVYYCAVELWWKWPFYYWGQGTQVTVSS | high polyreactivity |
| QVQLVESGGGLVQAGGRLRLSCAASGSTFPYNAMGCYRQAPGKERELVAAITSTGDSTYYADSVKGRFTISRDKAKNTVYLQMNSLKPEDTAVYYCAARSYASPGWRYEYWGQGTQVTVSS | low polyreactivity |

Source: the nanobody polyreactivity screen of Harvey et al. (2022)
